B1: Ras-related protein Rab-6A (Homo sapiens), P20340-1 (parent)
chain: MSTGGDFGNPLRKFKLVFLGEQSVGKTSLITRFMYDSFDNTYQATIGIDFLSKTMYLEDRTVRLQLWDTAGQERFRSLIPSYIRDSTVAVVVYDITNVNSFQQTTKWIDDVRTERGSDVIIMLVGNKTDLADKRQVSIEEGERKAKELNVMFIETSAKAGYNVKQLFRRVAAALPGMESTQDRSREDMIDIKLEKPQEQPVSEGGCSC
partner: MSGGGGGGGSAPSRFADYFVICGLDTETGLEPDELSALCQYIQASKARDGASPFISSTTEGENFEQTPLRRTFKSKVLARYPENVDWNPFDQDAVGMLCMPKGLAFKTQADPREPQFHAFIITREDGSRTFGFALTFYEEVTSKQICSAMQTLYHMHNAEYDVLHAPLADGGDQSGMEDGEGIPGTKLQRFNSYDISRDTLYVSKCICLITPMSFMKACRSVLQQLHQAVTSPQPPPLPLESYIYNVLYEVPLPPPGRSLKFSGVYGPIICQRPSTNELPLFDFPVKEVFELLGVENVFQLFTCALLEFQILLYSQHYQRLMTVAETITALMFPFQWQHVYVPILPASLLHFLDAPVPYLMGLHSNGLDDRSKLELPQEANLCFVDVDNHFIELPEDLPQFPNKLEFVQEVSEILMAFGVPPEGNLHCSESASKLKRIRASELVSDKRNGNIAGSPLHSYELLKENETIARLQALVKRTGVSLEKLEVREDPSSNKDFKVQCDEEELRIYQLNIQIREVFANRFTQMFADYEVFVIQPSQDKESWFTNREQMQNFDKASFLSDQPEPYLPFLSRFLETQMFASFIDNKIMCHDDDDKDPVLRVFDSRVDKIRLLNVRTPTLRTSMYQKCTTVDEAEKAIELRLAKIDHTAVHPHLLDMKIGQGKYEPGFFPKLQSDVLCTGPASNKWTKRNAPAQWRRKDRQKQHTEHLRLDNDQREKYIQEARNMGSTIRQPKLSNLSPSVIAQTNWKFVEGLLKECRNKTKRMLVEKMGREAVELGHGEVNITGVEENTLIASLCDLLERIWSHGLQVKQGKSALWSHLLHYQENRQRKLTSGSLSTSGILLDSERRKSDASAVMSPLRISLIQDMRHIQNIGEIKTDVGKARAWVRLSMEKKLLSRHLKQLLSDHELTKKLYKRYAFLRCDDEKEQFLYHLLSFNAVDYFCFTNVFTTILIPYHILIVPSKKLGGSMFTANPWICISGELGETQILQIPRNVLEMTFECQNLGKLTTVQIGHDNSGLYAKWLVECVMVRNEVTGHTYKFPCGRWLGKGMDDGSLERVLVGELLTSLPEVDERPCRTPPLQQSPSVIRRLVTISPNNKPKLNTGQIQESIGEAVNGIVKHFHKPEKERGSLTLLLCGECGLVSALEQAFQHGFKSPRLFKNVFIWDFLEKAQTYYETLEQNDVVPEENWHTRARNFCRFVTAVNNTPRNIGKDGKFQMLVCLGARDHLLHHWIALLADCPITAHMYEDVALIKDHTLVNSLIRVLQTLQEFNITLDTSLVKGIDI

The test covers variants of B1. The conditions noted are these: with den5a_mouse Dennd5a.
With I46E, the “effect of a mutation on the interaction” value is reported as “disrupting interaction”.

Values taken from IntAct's records for PubMed 19141279.
